Here are results for 1 molecule from US20030159166A1 (ORTHO MCNEIL PHARMACEUTICAL, published 2003).

The target in this experiment is T1, recombinant soluble HLA-DM (human, UniProt P28067 27-233; P28068 19-218).
T1 construct: extracellular domain; Expressed in Drosophila Schneider-2 cells, purified on Ni-NTA agarose and by gel filtration
Put plainly: in vitro complex formation, isolation on Ni-NTA agarose by the His tag of DM.

B1: DO-Fc fusion protein (extracellular domains of DOA and DOB fused to the Fc domain of human IgG1) (Fc fusion)
MHC II alpha: TKADHMGSYGPAFYQSYGASGQFTHEFDEEQLFSVDLKKSEAVWRLPEFGDFARFDPQGGLAGIAAIKAHLDILVERSNRSRAINVPPRVTVLPKSRVELGQPNILICIVDNIFPPVINITWLRNGQTVTEGVAQTSFYSQPDHLFRKFHYLPFVPSAEDVYDCQVEHWGLDAPLLRHWELQVPIPPPDAME
MHC II beta: TDSPEDFVIQAKADCYFTNGTEKVQFVVRFIFNLEEYVRFDSDVGMFVALTKLGQPDAEQWNSRLDLLERSRQAVDGVCRHNYRLGAPFTVGRKVQPEVTVYPERTPLLHQHNLLHCSVTGFYPGDIKIKWFLNGQEERAGVMSTGPIRNGDWTFQTVVMLEMTPELGHVYTCLVDHSSLLSPVSVEWRAQSEYSWRK
notes: extracellular domain; Expressed in Drosophila Schneider-2 cells, purified on protein A sepharose; also called HLA-DO; not shown: human IgG1 Fc domain
Regarding B1, the binding result is reported as “binds”.
